Laboratory results reported in US20060079453A1.
Several values for one entry are separate records, joined by “and”; a condition that tells them apart may be missing. Equal entries are not always repeated. Where two headings read alike, the source gives them in different places.

Experiments:
Test in all cases: competition, purified HLA
HLA-A*0101 (human) = target: HLA-A*0101 (human)
HLA-A*2902 (human) = target: HLA-A*2902 (human)
HLA-A*3002 (human) = target: HLA-A*3002 (human)
[1] = remark: other sources report otherwise

Binder | IC50 (HLA-A*0101 (human)) | IC50 (HLA-A*2902 (human)) | IC50 (HLA-A*3002 (human)) | further results
RFLSKISEY (modifications not checked) | > 40.3 µM | – | – | –
TLEKLTNTGLY (modifications not checked) | – | – | – | IC50 (HLA-A*0101 (human); [1]): 0.077 µM; IC50 (HLA-A*2902 (human); [1]): 0.991 µM
TLEKITNTELY (modifications not checked) | – | 8.4 µM | – | –
WFHISCLTF (modifications not checked) | – | – | – | IC50 (HLA-A*0101 (human); [1]): 85.3 µM; IC50 (HLA-A*2902 (human); [1]): 0.095 µM; IC50 (HLA-A*3002 (human); [1]): 75.1 µM
FTDLTIVY (modifications not checked) | 0.016 µM and 0.034 µM | – | 39 µM | –
FTDLRIVY (modifications not checked) | 0.026 µM | 0.813 µM | 8.06 µM | –
ISEYRHYQY (modifications not checked) | 0.04 µM | – | – | –
EYRHYNYSLY (modifications not checked) | 111 µM | 0.956 µM | – | –
PTLKEYVLDLY (modifications not checked) | – | 0.805 µM | – | –
RQAKQHTCY (modifications not checked) | > 135 µM | 155 µM | – | –
ATSNYYIVTY (modifications not checked) | 0.428 µM | – | – | –
RVLPPNWKY (modifications not checked) | – | – | 0.003 µM | –
RSDGPGPGVLY (modifications not checked) | – | 13.2 µM | – | –
RSDSVGPGPGY (modifications not checked) | – | 31.2 µM | – | –
RWGLLLALL (modifications not checked) | – | 61.3 µM | 0.3 µM | –
YTGPGPGVY (modifications not checked) | – | 2.02 µM | 0.0064 µM | –

Binder | IC50 (HLA-A*0101 (human)) | IC50 (HLA-A*2902 (human)) | IC50 (HLA-A*3002 (human)) | further results
YTAGPGPGY (modifications not checked) | 0.007 µM | – | – | –
TQDLVQEKY (modifications not checked) | – | 33.3 µM | – | –
TQGPGPGKY (modifications not checked) | – | 36.7 µM | – | –
TQDGPGPGY (modifications not checked) | – | 37.1 µM | 0.541 µM | –
EVGPGPGLY (modifications not checked) | 0.05 µM | – | – | –
EVDGPGPGY (modifications not checked) | – | 25.8 µM | 5.77 µM | –
IYGPGPGLIF (modifications not checked) | – | – | 6.84 µM | –
RISGVDRYY (modifications not checked) | – | – | 0.003 µM | –
IMVLSFLF (modifications not checked) | – | – | 30 µM | –
ALFQEYQCY (modifications not checked) | – | – | – | IC50 (HLA-A*0101 (human); [1]): > 42 µM
AYGPGPGKF (modifications not checked) | – | 44.9 µM | – | –
KYTSFPWL (modifications not checked) | – | > 172 µM | – | –
RQDILDLWVY (modifications not checked) | 9 µM | – | 0.095 µM | –
AADAAAAKY (modifications not checked) | 0.02 µM | – | – | –
AYSSWMYSY (modifications not checked) | – | – | 0.0049 µM | –
KTLYQSNPY (modifications not checked) | 6.91 µM | – | – | –
